The assay concerns the target T1, LY75 (DEC-205) on COLO205 cells (human, UniProt O60449 28-1722).
T1 construct: also called Lymphocyte antigen 75
Put plainly: competitive FACS on COLO205 cells; competitor anti-LY75-mAb-MCC-DM1.

T1 sequence (O60449 28-1722 limits assumed): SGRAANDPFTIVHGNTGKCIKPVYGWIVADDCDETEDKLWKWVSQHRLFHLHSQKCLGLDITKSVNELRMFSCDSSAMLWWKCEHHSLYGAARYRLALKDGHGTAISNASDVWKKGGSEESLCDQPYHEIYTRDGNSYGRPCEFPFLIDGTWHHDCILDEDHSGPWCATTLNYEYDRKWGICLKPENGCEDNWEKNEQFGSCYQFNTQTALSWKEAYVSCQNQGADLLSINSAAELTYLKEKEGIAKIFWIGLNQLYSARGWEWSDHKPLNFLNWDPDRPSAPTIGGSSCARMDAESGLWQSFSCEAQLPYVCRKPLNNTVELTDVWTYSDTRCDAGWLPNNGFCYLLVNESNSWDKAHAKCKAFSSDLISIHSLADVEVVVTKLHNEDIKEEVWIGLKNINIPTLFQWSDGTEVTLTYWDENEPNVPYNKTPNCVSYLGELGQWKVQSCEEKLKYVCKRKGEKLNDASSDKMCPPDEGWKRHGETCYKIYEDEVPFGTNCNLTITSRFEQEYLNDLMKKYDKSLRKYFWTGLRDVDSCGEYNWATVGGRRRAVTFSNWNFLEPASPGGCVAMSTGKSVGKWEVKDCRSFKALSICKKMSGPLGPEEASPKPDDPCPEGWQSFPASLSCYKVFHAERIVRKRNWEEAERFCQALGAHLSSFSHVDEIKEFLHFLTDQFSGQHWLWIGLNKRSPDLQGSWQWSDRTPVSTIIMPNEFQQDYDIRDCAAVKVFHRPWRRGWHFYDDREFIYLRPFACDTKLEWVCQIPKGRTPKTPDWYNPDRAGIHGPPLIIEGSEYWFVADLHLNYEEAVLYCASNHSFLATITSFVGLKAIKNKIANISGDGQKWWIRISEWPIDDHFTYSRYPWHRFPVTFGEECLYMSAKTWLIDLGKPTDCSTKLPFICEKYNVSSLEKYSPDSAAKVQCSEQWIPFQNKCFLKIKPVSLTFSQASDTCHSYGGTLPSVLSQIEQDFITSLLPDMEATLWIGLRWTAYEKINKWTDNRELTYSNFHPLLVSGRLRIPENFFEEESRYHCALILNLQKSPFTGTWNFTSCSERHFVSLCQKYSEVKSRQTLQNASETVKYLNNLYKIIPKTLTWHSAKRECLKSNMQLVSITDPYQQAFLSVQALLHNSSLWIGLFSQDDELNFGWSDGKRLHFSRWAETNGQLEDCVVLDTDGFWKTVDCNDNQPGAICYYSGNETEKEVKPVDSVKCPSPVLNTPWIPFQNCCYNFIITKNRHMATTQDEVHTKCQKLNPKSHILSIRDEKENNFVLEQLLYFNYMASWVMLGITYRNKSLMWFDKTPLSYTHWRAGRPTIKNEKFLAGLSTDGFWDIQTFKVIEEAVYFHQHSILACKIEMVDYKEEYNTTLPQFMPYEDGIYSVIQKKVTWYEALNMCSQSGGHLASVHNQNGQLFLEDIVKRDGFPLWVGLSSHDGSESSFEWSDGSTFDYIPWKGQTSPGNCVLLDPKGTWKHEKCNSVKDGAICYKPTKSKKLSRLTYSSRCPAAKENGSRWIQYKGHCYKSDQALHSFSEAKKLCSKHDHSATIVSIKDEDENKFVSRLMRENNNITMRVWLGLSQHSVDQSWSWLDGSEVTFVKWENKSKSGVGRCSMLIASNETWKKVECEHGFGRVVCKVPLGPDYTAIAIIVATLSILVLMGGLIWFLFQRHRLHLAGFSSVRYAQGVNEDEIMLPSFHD
Procedure: Cells were washed and resuspended in FACS buffer (PBS+2% FBS), neutralized with growth media, and counted. Cells were plated at 50,000 cells per well in a V Bottom 96-well plate. Cells were washed once with FACS buffer (PBS (Fisher, catalog #SH30028-03)+2% FBS). […] Test wells that required single or multiple staining steps were left in FACS buffer as appropriate to ensure the final staining was completed simultaneously for all conditions tested. Two wells were left unstained in FACS buffer as controls.
After the incubation with blocking antibody, cells were washed twice in FACS buffer. […] The cells were washed as above and resuspended in FACS buffer plus 1 μg/ml mouse anti-maytansine antibody and incubated in ice for 45 minutes. The cells were washed as above and resuspended in FACS buffer containing 2 ug/ml goat anti-mouse kappa RPE. The cells were incubated on ice for 45 minutes then washed as above. The cells were resuspended in FACS buffer at 200 μl per well. Mean fluorescence intensity of each sample was determined using a Guava EasyCyte Plus HT Flow Cytometer (96 well plate formats) and the raw data was analyzed using the Guava Cytosoft.

B1: LY75_A1 monoclonal antibody (antibody, human IgG1, kappa, V domains shown)
VH: EVQLVESGGGLVKPGGSLRLSCAASGFTYSNAWMSWVRQAPGKGLEWVGRIKSKTDGGTTDYAAPVQGRFTISRDDSKNTLYLQMNSLKTEDTAVYYCTIFGVVSFDYWGQGTLVTVSS
VL: DVQMTQSPSSLSASVGDRVTITCRASQSISDYLSWYQQRPGKAPNLLIYAASNLKTGVPSRFSGSGSGTDFTLTISTLQPEDFATYYCQQSYRSPWTFGQGTKVEIKR
notes: also called LY75A1 antibody; antibody LY75_A1
As to B1, the binding result is “binds”.

Values taken from patent US20210113690A1 (BERLIN CHEMIE, published 2021).
